In assay [1] the target is T1, GST-MDM2 (human MDM2 residues 17-125) (human, UniProt Q00987 17-125).
T1 construct: range 17-125; No removal of GST is reported; not shown: glutathione S-transferase (GST) tag encoded by vector pGEX-6P-2
Description: direct binding of the FITC-labeled peptide to MDM2.

For assay [2], the target named is T1, GST-MDM2 (human MDM2 residues 17-125). Description: ratio of KD values of FITC-labeled peptides.
The target is the same in assay [3]. The assay can be described thus: direct binding of the FITC-labeled peptide to MDM2. This is another data set of the same source.
For assay [4] the target is unchanged. The assay can be described thus: direct binding of the FITC-labeled peptide to MDM2 (the text differs from Table 7).
The target is the same in assay [5]. Description: fluorescence anisotropy competition with FITC-labeled peptide 1 for MDM2. For orientation: Polarisation of emitted light reports the rotation of a fluorescent probe.

Numbered stars: 1 amine (or outer) side, 2 acyl side, 3 side chain; on linkers, the order of the positions; unused ones are H or OH. Bridge positions count the residues as written; N and C are the ends. Square brackets hold non-standard residues; d marks the D form. Side chains are listed from the residue outwards. Ends that are not written are not given here. * marks the point of attachment. aminooxyacetyl = aminooxyacetyl (from Boc-aminooxyacetyl acylation of Lys side-chain amine), NOCC(=O)*; 2Nal = N[C@@H](Cc1ccc2ccccc2c1)C(=O)O; mXylylene = c1cc(C[*:1])cc(C[*:2])c1; CH2COCH2 = O=C(C[*:1])C[*:2]; hCys = N[C@@H](CCS)C(=O)O; AEEA = NCCOCCOCC(=O)O

We go through eleven molecules from patent publication US20230106131A1 (OHIO STATE INNOVATION FOUNDATION, published 2023).

B1: peptide 3 (PDI with homocysteine at His-5 and Gln-9, stapled with DCA, FITC-labeled) (peptide)
peptide: LTFEXYWAXLTS
modifications: not fully specified; homocysteine at 5 and 9, joined by a 1,3-dichloroacetone (DCA) staple; FITC label; the rest of the structure only in drawing CHEM-US-00020
notes: X stands for homocysteine
In general, Kd refers to the equilibrium constant for the complex coming apart. Low readings indicate a tighter complex, high ones a looser complex. For the molecule B1, the Kd in assay [1] was found to be 171 nM.

B2: peptide 6, Ac-LTFCHYWCQLTS-miniPEG-K(FITC)-NH2, stapled (peptide)
peptide: Ac-LTFCHYWCQLTS-{AEEA-K(FITC)-NH2}
modifications: bridge 4-8; not fully specified (bridges); printed as Ac-LTFCHYWCQLTS-miniPEG-K(FITC)-NH
notes: No CPP
Turning to B2, in assay [2], the “fold decrease of MDM2-binding affinity against peptide 1” value was roughly 2.5 fold. This molecule gave a Kd in assay [3] of 190 nM.

B3: peptide 10, Ac-ETFCHYWCQLTS-miniPEG-K(FITC)-NH2, xylene-stapled (peptide)
peptide: Ac-ETFCHYWCQLTS-{AEEA-K(FITC)-NH2}
modifications: linker 4-8 via mXylylene
notes: No CPP
On to B3, for which, in assay [2], the “fold improvement of binding affinity against peptide 6” value was determined as 5 fold. Besides, binding in assay [3] was put at a Kd of 36 nM.

B4: peptide 13, Ac-EETFCHYWCQLTS-miniPEG-K(FITC)-NH2, stapled with BBA-CPP9 (peptide)
peptide 1: EETFCHYWCQLTS
peptide 2: FXRRRRQ
modifications: head-to-tail cyclic; D-Phe at 1, L-2-naphthylalanine at 2, D-Arg at 4 and 6; miniPEG-Lys linker, with the Lys side chain acylated by the BBA staple; N-terminal acetyl; Cys 5 and Cys 9 joined by a 3,5-dimethylbenzoyl (BBA) staple that carries CPP9; C-terminal miniPEG-Lys(FITC) amide
Molecule B4 gave a Kd in assay [3] of 365 nM.

B5: peptide 12, Ac-EETFCHYWCQLTS-miniPEG-K(FITC)-NH2, xylene-stapled (peptide)
peptide: Ac-EETFCHYWCQLTS-{AEEA-K(FITC)-NH2}
modifications: linker 5-9 via mXylylene
notes: No CPP
Molecule B5 had a Kd in assay [3] of 187 nM.

B6: peptide 8, Ac-LTFhCHYWhCQLTS-miniPEG-K(FITC)-NH2, stapled (peptide)
peptide: Ac-LTF[hCys]HYW[hCys]QLTS-{AEEA-K(FITC)-NH2}
modifications: bridge 4-8; not fully specified (bridges)
notes: No CPP
Regarding B6, in assay [2], the “fold improvement of MDM2 binding affinity against peptide 1” value is 5 fold. Moreover, the Kd in assay [4] is 14 nM; in assay [3], 15 nM.

B7: peptide 4 (DCA-stapled peptide 2 conjugated to CPP9 through an oxime, stereoisomer 1, unlabeled) (peptide)
peptide 1: LTF[hCys]HYW[hCys]QLTS
peptide 2: [dF][2Nal]R[dR]R[dR]Q([AEEA-Lys-aminooxyacetyl])
modifications: thioether (positions not given here) via CH2COCH2; not fully specified (bridges); also: oxime stereoisomer 1 (peak 1), Z/E not determined, further groups not given here, head-to-tail to a chain's N/C-terminus
notes: Peptides 4 and 5 are the two isomers separated by HPLC; also called 3-1-1-DCA-CP9 peak1
Broadly, the IC50 is the concentration that inhibits the measured activity by half. A lower IC50 goes with greater potency. In the case of B7, the IC50 in assay [5] is 220 nM.

B8: peptide 5 (DCA-stapled peptide 2 conjugated to CPP9 through an oxime, stereoisomer 2, unlabeled) (peptide)
peptide 1: LTF[hCys]HYW[hCys]QLTS
peptide 2: [dF][2Nal]R[dR]R[dR]Q([AEEA-Lys-aminooxyacetyl])
modifications: thioether (positions not given here) via CH2COCH2; not fully specified (bridges); also: oxime stereoisomer 2 (peak 2), Z/E not determined, further groups not given here, head-to-tail to a chain's N/C-terminus
notes: also called 3-1-1-DCA-CP9 peak2
In assay [5], B8 returned an IC50 of 201 nM.

B9: peptide 2 (PDI with homocysteine at Glu-4 and Ala-8, stapled with DCA, FITC-labeled) (peptide)
peptide: LTFXHYWXQLTS
modifications: not fully specified; homocysteine at 4 and 8, joined by a 1,3-dichloroacetone (DCA) staple; FITC label; the rest of the structure only in drawing CHEM-US-00019
notes: X stands for homocysteine; also called 3-1-1-DCA
Molecule B9 yielded a dissociation constant Kd in assay [1] of 144 nM.

B10: peptide 7, Ac-LTFCHYWCQLTS-miniPEG-K(FITC)-NH2, stapled with BBA-CPP9 (peptide)
peptide 1: LTFCHYWCQLTS
peptide 2: FXRRRRQ
modifications: head-to-tail cyclic; D-Phe at 1, L-2-naphthylalanine at 2, D-Arg at 4 and 6; miniPEG-Lys linker, with the Lys side chain acylated by the BBA staple; N-terminal acetyl; Cys 4 and Cys 8 joined by a 3,5-dimethylbenzoyl (BBA) staple that carries CPP9; C-terminal miniPEG-Lys(FITC) amide
For the molecule B10, in assay [2], the “fold decrease of MDM2 binding affinity against peptide 6” value is roughly 2 fold. Besides, the Kd in assay [3] is roughly 300 nM.

B11: peptide 11, Ac-ETFCHYWCQLTS-miniPEG-K(FITC)-NH2, stapled with BBA-CPP9 (peptide)
peptide 1: ETFCHYWCQLTS
peptide 2: FXRRRRQ
modifications: head-to-tail cyclic; D-Phe at 1, L-2-naphthylalanine at 2, D-Arg at 4 and 6; miniPEG-Lys linker, with the Lys side chain acylated by the BBA staple; N-terminal acetyl; Cys 4 and Cys 8 joined by a 3,5-dimethylbenzoyl (BBA) staple that carries CPP9; C-terminal miniPEG-Lys(FITC) amide
As to B11, the “fold decrease of MDM2 binding affinity against peptide 10” value in assay [2] turned out to be 6 fold. Besides, the equilibrium dissociation constant (Kd) in assay [3] was 225 nM.
